Measurements from publication PMC12817480, “Phospho‐Proteomics Identifies D‐Group MAP Kinases as Substrates of the Arabidopsis Tyrosine Phosphatase RLPH2” (Plant Direct, 2026).

T1: Purified MPK9‐V5‐His6 with the RVSF motif maintained (MPK9^RVSF), as used with PP1 (Arabidopsis thaliana, UniProt Q9LV37 1-510)
T1 construct: MAP kinase 9 (MPK9), Arabidopsis thaliana, At3g18040, synthesized gene codon optimized for bacteria, in pDEST42; Same construct as m2; also called MPK9^RVXF; MPK9^RVxF; source: E. coli BL21 (DE3) CodonPlus‐RIL, purified (Ni‐NTA)
T1 sequence (looked up): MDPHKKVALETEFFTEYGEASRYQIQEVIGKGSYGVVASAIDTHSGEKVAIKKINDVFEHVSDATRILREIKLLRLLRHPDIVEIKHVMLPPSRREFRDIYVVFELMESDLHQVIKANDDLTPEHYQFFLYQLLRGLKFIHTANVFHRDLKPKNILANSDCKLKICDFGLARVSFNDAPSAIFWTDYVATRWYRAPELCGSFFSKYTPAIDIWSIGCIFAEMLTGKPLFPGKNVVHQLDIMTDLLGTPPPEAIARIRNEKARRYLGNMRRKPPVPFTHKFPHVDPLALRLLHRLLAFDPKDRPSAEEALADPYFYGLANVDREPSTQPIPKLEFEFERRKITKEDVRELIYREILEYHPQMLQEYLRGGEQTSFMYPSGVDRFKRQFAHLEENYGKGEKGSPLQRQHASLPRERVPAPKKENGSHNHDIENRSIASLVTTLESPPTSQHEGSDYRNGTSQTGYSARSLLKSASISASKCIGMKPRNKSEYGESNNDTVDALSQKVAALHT

T2: MPK9‐V5‐His6, full‐length, activated/phosphorylated (MPK9^TDY) (Arabidopsis thaliana, UniProt Q9LV37 1-510, phospho-threonine and phospho-tyrosine of the activation loop TDY motif (autophosphorylated; dual phosphorylated pTxpY))
T2 construct: MAP kinase 9 (MPK9), Arabidopsis thaliana, At3g18040, synthesized gene codon optimized for bacteria, in pDEST42; Printed as MPK9-V5-His6 (tags written after the name); also called MAP kinase 9; ATMPK9; source: E. coli BL21 (DE3) CodonPlus‐RIL, purified (Ni‐NTA), then autophosphorylated with Mg‐ATP
T2 sequence (looked up): T1 sequence (looked up)

B1: Arabidopsis PP1 isoform 5 (TOPP5) (enzyme, Arabidopsis thaliana, UniProt P48485 1-312, looked up)
chain: MAQQGQGSMDPAVLDDIIRRLLDYRNPKAGTKQAMLNDSEIRQLCFVSREIFLQQPCLLELAAPVKICGDIHGQYSDLLRLFEYGGFPPAANYLFLGDYVDRGKQSLETICLLLAYKIKYPENFFLLRGNHECASINRIYGFYDECKRRFNVKLWKVFTDTFNCLPVAAVIDEKILCMHGGLSPELINVEQIKNIERPTDVPDAGLLCDLLWSDPSKDVKGWGMNDRGVSYTFGADKVAEFLIKNDMDLVCRAHQVVEDGYEFFADRQLVTMFSAPNYCGEFDNAGALMSVDESLMCSFQILKPVDRRSRFF
notes: Type one protein phosphatase 5 (TOPP5), PP1 catalytic subunit, Arabidopsis thaliana; also called AtPP1; source: recombinant, purified on microcystin‐Sepharose (as in Templeton et al. 2011)
B2: Arabidopsis PP1 isoform 1 (TOPP1) (enzyme, Arabidopsis thaliana, UniProt P30366 1-318, looked up)
chain: MAEKPAQEQEQKRAMEPAVLDDIIRRLVEFRNTRPGSGKQVHLSEGEIRQLCAVSKEIFLQQPNLLELEAPIKICGDIHGQYSDLLRLFEYGGFPPEANYLFLGDYVDRGKQSLETICLLLAYKIKYPENFFLLRGNHESASINRIYGFYDECKRRFNVRLWKIFTDCFNCLPVAALIDDRILCMHGGISPELKSLDQIRNIARPMDIPESGLVCDLLWSDPSGDVGWGMNDRGVSYTFGADKVAEFLEKHDMDLICRAHQVVEDGYEFFAERQLVTVFSAPNYCGEFDNAGAMMSIDESLMCSFQILKPSEKKSPFL
notes: Type one protein phosphatase 1 (TOPP1), PP1 catalytic subunit, Arabidopsis thaliana; source: recombinant, purified on microcystin‐Sepharose (as in Templeton et al. 2011)
B3: Arabidopsis PP1 isoform 4 (TOPP4) (enzyme, Arabidopsis thaliana, UniProt P48484 1-321, looked up)
chain: MATTTTTQGQQTAIDSAVLDDIIRRLTEVRLARPGKQVQLSEAEIKQLCTTARDIFLQQPNLLELEAPIKICGDIHGQYSDLLRLFEYGGFPPSANYLFLGDYVDRGKQSLETICLLLAYKIKYPGNFFLLRGNHECASINRIYGFYDECKRRFNVRVWKVFTDCFNCLPVAALIDDKILCMHGGLSPDLDHLDEIRNLPRPTMIPDTGLLCDLLWSDPGKDVKGWGMNDRGVSYTFGPDKVSEFLTKHDLDLVCRAHQVVEDGYEFFADRQLVTVFSAPNYCGEFDNAGAMMSVDENLMCSFQILKPAEKKTKFMMSTKI
notes: Type one protein phosphatase 4 (TOPP4), PP1 catalytic subunit, Arabidopsis thaliana; source: recombinant, purified on microcystin‐Sepharose (as in Templeton et al. 2011)
B4: Arabidopsis PP1 isoform 3 (TOPP3) (enzyme, Arabidopsis thaliana, UniProt P48483 1-322, looked up)
chain: MEDSVVDDVIKRLLGAKNGKTTKQVQLTEAEIKHLCSTAKQIFLTQPNLLELEAPIKICGDTHGQFSDLLRLFEYGGYPPAANYLFLGDYVDRGKQSVETICLLLAYKIKYKENFFLLRGNHECASINRIYGFYDECKKRYSVRVWKIFTDCFNCLPVAALIDEKILCMHGGLSPELKHLDEIRNIPRPADIPDHGLLCDLLWSDPDKDIEGWGENDRGVSYTFGADKVEEFLQTHDLDLICRAHQVVEDGYEFFANRQLVTIFSAPNYCGEFDNAGAMMSVDDSLTCSFQILKASEKKGNFGFGKNAGRRGTPPRKGGGKG
notes: Type one protein phosphatase 3 (TOPP3), PP1 catalytic subunit, Arabidopsis thaliana; source: recombinant, purified on microcystin‐Sepharose (as in Templeton et al. 2011)
B5: Arabidopsis PP1 isoform 8 (TOPP8) (enzyme, Arabidopsis thaliana, UniProt O82734 1-324, looked up)
chain: MMTSMEGMVEKGVLDDIIRRLLEGKGGKQVQLSESEIRQLCFNARQIFLSQPNLLDLHAPIRICGDIHGQYQDLLRLFEYGGYPPSANYLFLGDYVDRGKQSLETICLLLAYKIRYPSKIYLLRGNHEDAKINRIYGFYDECKRRFNVRLWKVFTDCFNCLPVAALIDEKILCMHGGLSPDLDNLNQIREIQRPIEIPDSGLLCDLLWSDPDQKIEGWADSDRGISCTFGADKVAEFLDKNDLDLICRGHQVVEDGYEFFAKRRLVTIFSAPNYGGEFDNAGALLSVDESLVCSFEIMKPAPASSSHPLKKDFHNRTLGYNLSA
notes: Type one protein phosphatase 8 (TOPP8), PP1 catalytic subunit, Arabidopsis thaliana; source: recombinant, purified on microcystin‐Sepharose (as in Templeton et al. 2011)
B6: Arabidopsis PP1 isoform 9 (TOPP9) (enzyme, Arabidopsis thaliana, UniProt Q9M9W3 1-318, looked up)
chain: MMTSMEGMMEMGVLDDIIRRLLEGKGGKQVQLSEVEIRQLCVNARQIFLSQPNLLELHAPIRICGDIHGQYQDLLRLFEYGGYPPSANYLFLGDYVDRGKQSLETICLLLAYKIRYPSKIFLLRGNHEDAKINRIYGFYDECKRRFNVRLWKIFTDCFNCLPVAALIDEKILCMHGGLSPELENLGQIREIQRPTEIPDNGLLCDLLWSDPDQKNEGWTDSDRGISCTFGADVVADFLDKNDLDLICRGHQVVEDGYEFFAKRRLVTIFSAPNYGGEFDNAGALLSVDQSLVCSFEILKPAPASSTNPLKKVPKMGKS
notes: Type one protein phosphatase 9 (TOPP9), PP1 catalytic subunit, Arabidopsis thaliana; source: recombinant, purified on microcystin‐Sepharose (as in Templeton et al. 2011)
B7: Arabidopsis thaliana Rhizobiales‐like phosphatase 2 (RLPH2‐V5‐His6) (enzyme, UniProt Q9SR62 1-309, looked up)
chain: MAQKPRTVICVGDIHGYISKLNNLWLNLQSAIDPSDFSSALVIFLGDYCDRGPETRKVIDFLISLPEKHPDQTHVFLAGNHDFAFSGFLGLLPRPSDGSDLKDTWKEYSKSEETEGWYTGEGFEDMHLQGRRWAGKIKATFNSVKGMAYKGSIYDAGSTFESYGVPHGSSDLMKAVPESHKKFLTNMVWVHEEDDVCIETEEGLKHCKLIAVHAGLEKGNNVEEQLKLLRAKDTSISKIQHLSGRKNVWDIPQELDDKHTVVVSGHHGKLHIDGMRLIIDEGGGFPDKPVAAIVLPSKKIIRDTDNLSS
notes: Rhizobiales-like phosphatase 2 (RLPH2), Arabidopsis thaliana; Printed as RLPH2-V5-His6 (tags written after the name); source: bacterially expressed, purified (as in Uhrig et al. 2016)
B8: Arabidopsis PP1 isoform 2 (TOPP2) (enzyme, Arabidopsis thaliana, UniProt P48482 1-312, looked up)
chain: MAQQGQGSMDPAALDDIIRRLLDYRNPKPGTKQAMLNESEIRQLCIVSREIFLQQPNLLELEAPIKICGDIHGQYSDLLRLFEYGGFPPTANYLFLGDYVDRGKQSLETICLLLAYKIKYPENFFLLRGNHECASINRIYGFYDECKRRFSVRLWKVFTDSFNCLPVAAVIDDKILCMHGGLSPDLTNVEQIKNIKRPTDVPDSGLLCDLLWSDPSKDVKGWGMNDRGVSYTFGPDKVAEFLIKNDMDLICRAHQVVEDGYEFFADRQLVTIFSAPNYCGEFDNAGAMMSVDESLMCSFQILKPADRKPRFL
notes: Type one protein phosphatase 2 (TOPP2), PP1 catalytic subunit, Arabidopsis thaliana; source: recombinant, purified on microcystin‐Sepharose (as in Templeton et al. 2011)

Columns and labels:
Conditions in all cases: both partners purified
[1] = target: T1, Purified MPK9‐V5‐His6 with the RVSF …; test: pull-down; TOPP5 (1 μg) and MPK9^RVXF or MPK9^RASA (5 μg) incubated 1 h at RT, then with BSA‐blocked Ni‐NTA 1 h at RT; washed with 50 mM HEPES pH 7.5, 300 mM NaCl, 0.1% Tween 20; western blot (V5, pan‐TOPP)
[2] = target: T1, Purified MPK9‐V5‐His6 with the RVSF …; test: far-Western, overlay or dot blot; MPK9^RVXF and MPK9^RASA run on SDS‐PAGE, blotted to nitrocellulose, probed with PP1 (TOPP) isoforms (2 μg/mL) for 4 h in TBS plus 5% milk powder; PP1 detected with anti‐TOPP antibody
[3] = target: T2, MPK9‐V5‐His6, full‐length, …; test: far-Western, overlay or dot blot; purified activated MPKs dotted onto nitrocellulose, blocked, overlaid with purified RLPH2 (1.5 μg/mL), detected with anti‐RLPH2 antibody; in triplicate

Row | Binder | binding result [2] | also measured
1 | B1 |  | binding result [1]: binds
2 | B2 | binds | 
3 | B3 | binds | 
4 | B4 | binds | 
5 | B5 | binds | 
6 | B6 | binds | 
7 | B7 |  | binding result [3]: binds
8 | B8 | binds | 
